Fewer inactive variants are shown than the library holds.
B1: TPR 5TU (parent)
chain: GGAUCUUCUCGAUCUAACAAAAAAGACAAAUCUGCCACAAAGCUUGAGAGCAUCUUCGGAUGCAGAGGCGGCAGCCUUCGGUGGCGCGAUAGCGCCAACGUUCUCAACUAUGACACGCAAAACGCGUGCUCCGUUGAAUGGAGUUUAUCAUG

Variants of: B1
Assay: polymerase ribozyme fitness, log enrichment relative to wild type (log ratio); higher = more active; in vitro selection for triplet polymerase activity
Outline: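 Frozen incubation at −7 °C formed the core of a single, triplicate in vitro selection round applied to PCR-built, transcribed mutant libraries of each subunit of a heterodimeric triplet polymerase ribozyme. Extended constructs were gel-excised, captured with streptavidin beads and amplified by RT-PCR, and input and output libraries were Illumina-sequenced with a filter of ≥10 input reads and ≥1 read per output. Fitness is the logarithm of genotype enrichment relative to wild-type enrichment, with inverse-variance-weighted replicate averaging, and the logarithm is base 2.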

Compared with C57G U148A, G58A G92A U127C U135G G143U U151G is lower in “polymerase ribozyme fitness (log ratio)” value: -3.25 for the first, no more than -4.2 for the second.

Going from G58C C93A G141C to G58U G84U A113G U139G, the “polymerase ribozyme fitness (log ratio)” value falls from -2.47 to -2.95.

G59A A60G U77G U127C and C57U U127A U151G cannot be ordered by “polymerase ribozyme fitness (log ratio)” value: no more than -4.2 for the first, no more than -4.2 for the second.

Compared with C57G U61A G88A U104G, C57G G59A A73U G88C is lower in “polymerase ribozyme fitness (log ratio)” value: -4.19 for the first, no more than -4.2 for the second.

First: C57U U111G
Second: G58C G92U A122G
The “polymerase ribozyme fitness (log ratio)” value of the first is lower: -4.17 for the first, -1.45 for the second.

Compared with C57U A147U, G58A U146C is lower in “polymerase ribozyme fitness (log ratio)” value: 1.47 for the first, 0.448 for the second.

Compared with C57U G141A, G58C A107C U130G A137G A147G is lower in “polymerase ribozyme fitness (log ratio)” value: 0.719 for the first, no more than -4.2 for the second.

G58U A97G G112C C149A and G58C G67U A91U A107G C108U C116G C125U C129U cannot be ordered by “polymerase ribozyme fitness (log ratio)” value: no more than -4.2 for the first, no more than -4.2 for the second.

Compared with G58C C87U C114U, G58A C87U A89U A106U is lower in “polymerase ribozyme fitness (log ratio)” value: -2.21 for the first, -2.54 for the second.

Going from C57U C99G C105U to G58U G83U C118U A137U, the “polymerase ribozyme fitness (log ratio)” value falls from -1 to no more than -4.2.

Compared with G59A A60G U134C, G58A G81A G86A C93U G112C C116U C149G is higher in “polymerase ribozyme fitness (log ratio)” value: -0.132 for the first, 1.13 for the second.

First: C57U G58A G83A G86A C118U C123A
Second: G58C G59A U102G A121U U127C
The “polymerase ribozyme fitness (log ratio)” value of the first is higher: -1.76 for the first, -3.85 for the second.

Going from G58A G62C U82G A106G G141C to C57U G58A A60U C69U C76A G88U G141A, the “polymerase ribozyme fitness (log ratio)” value falls from -4.01 to no more than -4.2.

Going from C57U C75G G81A C87G A120G to G58A G81A C123U U146G A147G, the “polymerase ribozyme fitness (log ratio)” value rises from no more than -4.2 to -0.0286.

Compared with G58U U61G, C57U G84A C99A is higher in “polymerase ribozyme fitness (log ratio)” value: -1.81 for the first, -1.59 for the second.

Compared with G58A C76G C125U C132A G133C, G58A C63A is higher in “polymerase ribozyme fitness (log ratio)” value: no more than -4.2 for the first, 0.255 for the second.

G59A A73U C75U C87A C95A G100U U127G A150C and C57U C85A C96G C116U G143C U148A cannot be ordered by “polymerase ribozyme fitness (log ratio)” value: no more than -4.2 for the first, no more than -4.2 for the second.

First: G58C C87A G136A U144G
Second: G58U U148A
The “polymerase ribozyme fitness (log ratio)” value of the first is lower: no more than -4.2 for the first, -3.05 for the second.

Compared with C57U U146G, G58C C96G C125G G143U is lower in “polymerase ribozyme fitness (log ratio)” value: -0.656 for the first, no more than -4.2 for the second.

First: C57U A142U
Second: G58U G68A U148G
The “polymerase ribozyme fitness (log ratio)” value of the first is higher: 0.471 for the first, no more than -4.2 for the second.

Going from G58A G81C G84A G133C U144G to G58A G84A A142U G152A, the “polymerase ribozyme fitness (log ratio)” value falls from -0.672 to -2.68.

Going from G58C C118U U135C U145A to G58A C63U C93A C105A, the “polymerase ribozyme fitness (log ratio)” value falls from -1.79 to -4.05.

Compared with G58C G126U, G58A A98G is higher in “polymerase ribozyme fitness (log ratio)” value: -0.916 for the first, 0.621 for the second.

Going from C57U A121U C129U to C57U G71U, the “polymerase ribozyme fitness (log ratio)” value falls from -0.101 to -1.94.

First: C57U A73C
Second: C57U A73U
The “polymerase ribozyme fitness (log ratio)” value of the first is lower: -1.36 for the first, -0.507 for the second.

Going from G58C U77G C87G G152A to G58A G84C, the “polymerase ribozyme fitness (log ratio)” value rises from no more than -4.2 to -1.94.

First: C57G G59A G81C U104G A120U
Second: G58C U82A
The “polymerase ribozyme fitness (log ratio)” value of the first is lower: -1.84 for the first, 0.644 for the second.

First: G58U A66C U77G A91U C96G A97U
Second: C57U G86U A97C
The “polymerase ribozyme fitness (log ratio)” value of the first is lower: no more than -4.2 for the first, -1.82 for the second.

G58C A60G G81U G88A C108G G117C A119U G143C and C57U A64U G92C C105U cannot be ordered by “polymerase ribozyme fitness (log ratio)” value: no more than -4.2 for the first, no more than -4.2 for the second.

First: G58U C69A C85U C132G G133C G141C
Second: G58A G83U A98U C103U
The “polymerase ribozyme fitness (log ratio)” value of the first is lower: no more than -4.2 for the first, -1.15 for the second.

Going from C57G C129G to C57U C76U C129G, the “polymerase ribozyme fitness (log ratio)” value falls from -2.74 to -3.51.

Compared with G58C G94U C131U, C57U G94U U127C C132U is lower in “polymerase ribozyme fitness (log ratio)” value: -0.209 for the first, -3.37 for the second.

Going from C57U A60U C95A C105U C125A to C57U G58A U104G C105U, the “polymerase ribozyme fitness (log ratio)” value falls from -2.41 to -3.63.

Compared with C57U G81C C95A A122C, C57U A89U U101A C125U G141A U146A is lower in “polymerase ribozyme fitness (log ratio)” value: -0.59 for the first, no more than -4.2 for the second.

C57U G68A C75G C76G C87A A98U U145C and C57U C87G A107C C108U U135A U151C cannot be ordered by “polymerase ribozyme fitness (log ratio)” value: no more than -4.2 for the first, no more than -4.2 for the second.

Going from G58A G83A to C57U C87A, the “polymerase ribozyme fitness (log ratio)” value falls from -0.976 to -4.12.

Going from C57U C116U U139C to C57U A64G, the “polymerase ribozyme fitness (log ratio)” value rises from no more than -4.2 to -3.91.

Compared with C57U G68A, C57U G83C C87A G94U U146C is lower in “polymerase ribozyme fitness (log ratio)” value: -3.56 for the first, no more than -4.2 for the second.

Compared with C57U U104C C116G A120U C123A, C57U C85U is lower in “polymerase ribozyme fitness (log ratio)” value: 0.628 for the first, 0.073 for the second.

First: C57U C85A
Second: C57U A73G G143U U145G
The “polymerase ribozyme fitness (log ratio)” value of the first is higher: -1.63 for the first, no more than -4.2 for the second.

Compared with G58U G81C C93G, C57U G59C C69G C96A is higher in “polymerase ribozyme fitness (log ratio)” value: -3.21 for the first, -1.45 for the second.

In the case of C57U G92U, the “polymerase ribozyme fitness (log ratio)” value is reported as -0.682.

Reference: the RNAGym collection of RNA variant scans (doi:10.1073/pnas.2313332121)
